Source: patent US20110091994A1, “Methods for Screening Compounds for Treating and/or Preventing an Hepatitis C Virus Infection” (priority 2008, published 2011)
Where two headings read alike, the source gives them in different places.

Tests used:
HCV proteins = molecular target: T1, HCV proteins (Hepatitis C virus genotype 1b, UniProt Q9WMX2); assay: Validation by Y2H pairwise matrices; assay type: binding;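 also: yeast two-hybrid pairwise tests of interactions first found in Y2H screens of HCV bait proteins against human cDNA libraries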
T1 construct: expressed in transfected cells
Protocol: A comprehensive interactome map between HCV and cellular proteins was generated by Y2H screens. Twenty seven constructs encoding full-length HCV mature proteins or discrete domains were cloned using a recombination-based cloning system (10) (FIG. 6). Four independent screens were performed with each HCV bait protein, probing two distinct human cDNA libraries (Supplementary Methods). […] Two validation methods were used to assess the confidence of the IMAP Y2H dataset.

[1] = molecular target: T2, HCV ORFs (Gal4-DB fusions) (Hepatitis C virus genotype 1b, UniProt Q9WMX2); assay type: binding, HCV genotype 1b, isolate con1; conditions: human protein as prey
T2 construct: expressed in transfected cells; host or cells: Saccharomyces cerevisiae MAV203 (IMAP1) / AH109 (IMAP2)

[2] = system: HCV ORFs (Gal4-DB fusions); assay type: binding, HCV genotype 1b, isolate con1; conditions: human protein listed by gene symbol; the value names the HCV protein it interacts with
[3] = validation of interaction with HCV protein NS3
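For IMAP Y2H IMAP1 (number of IST) in this document: yeast two-hybrid screens using HCV genotype 1b proteins fused to Gal4-DB as baits against prey cDNA libraries from human spleen and foetal brain, IMAP1 via transformation and IMAP2 via mating.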
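For IMAP Y2H IMAP2 (number of IST) in this document: yeast two-hybrid screens using HCV genotype 1b proteins fused to Gal4-DB as baits against prey cDNA libraries from human spleen and foetal brain, IMAP1 via transformation and IMAP2 via mating.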
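For Interaction with viral protein in this document: yeast two-hybrid screens using HCV genotype 1b proteins fused to Gal4-DB as baits against prey cDNA libraries from human spleen and foetal brain, IMAP1 via transformation and IMAP2 via mating.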

Molecule | Y2H matrices (HCV proteins; [3]) | IMAP Y2H IMAP1 (number of IST) ([1]; HCV protein NS3 as bait) | Interaction with viral protein [2] | IMAP Y2H IMAP2 (number of IST) ([1]; HCV protein NS3 as bait) | Y2H matrices (HCV proteins; validation of interaction with HCV protein CORE) | IMAP Y2H IMAP1 (number of IST) ([1]; HCV protein CORE as bait)
XRN2 (protein, UniProt Q9H0D6 1-950, looked up) 5'-3' exoribonuclease 2: MGVPAFFRWLSRKYPSIIVNCVEEKPKECNGVKIPVDASKPNPNDVEFDNLYLDMNGIIHPCTHPEDKPAPKNEDEMMVAIFEYIDRLFSIVRPRRLLYMAIDGVAPRAKMNQQRSRRFRASKEGMEAAVEKQRVREEILAKGGFLPPEEIKERFDSNCITPGTEFMDNLAKCLRYYIADRLNNDPGWKNLTVILSDASAPGEGEHKIMDYIRRQRAQPNHDPNTHHCLCGADADLIMLGLATHEPNFTIIREEFKPNKPKPCGLCNQFGHEVKDCEGLPREKKGKHDELADSLPCAEGEFIFLRLNVLREYLERELTMASLPFTFDVERSIDDWVFMCFFVGNDFLPHLPSLEIRENAIDRLVNIYKNVVHKTGGYLTESGYVNLQRVQMIMLAVGEVEDSIFKKRKDDEDSFRRRQKEKRKRMKRDQPAFTPSGILTPHALGSRNSPGSQVASNPRQAAYEMRMQNNSSPSISPNTSFTSDGSPSPLGGIKRKAEDSDSEPEPEDNVRLWEAGWKQRYYKNKFDVDAADEKFRRKVVQSYVEGLCWVLRYYYQGCASWKWYYPFHYAPFASDFEGIADMPSDFEKGTKPFKPLEQLMGVFPAASGNFLPPSWRKLMSDPDSSIIDFYPEDFAIDLNGKKYAWQGVALLPFVDERRLRAALEEVYPDLTPEETRRNSLGGDVLFVGKHHPLHDFILELYQTGSTEPVEVPPELCHGIQGKFSLDEEAILPDQIVCSPVPMLRDLTQNTVVSINFKDPQFAEDYIFKAVMLPGARKPAAVLKPSDWEKSSNGRQWKPQLGFNRDRRPVHLDQAAFRTLGHVMPRGSGTGIYSNAAPPPVTYQGNLYRPLLRGQAQIPKLMSNMRPQDSWRGPPPLFQQQRFDRGVGAEPLLPWNRMLQTQNAAFQPNQYQMLAGPGGYPPRRDDRGGRQGYPREGRKYPLPPPSGRYNWN | + | 1 | NS3 |  |  | 
USHBP1 (protein, UniProt Q8N6Y0 1-703, looked up) Harmonin-binding protein …: MSARATRPRSRRGRHAPPGELDPVAESSEEVEAASGSSKPSFAPPPVSSGLEQLGPMEEVSGQGLGSRTDKKMDGGSGRELASAPEVPHKPAVEAHQAPEAALQYKETVPPGNGAPDVFQTLQHTLSSLEAAAAAWRHQPPSHSGPMEFEGTSEGGAGSLGKQEGAGSCQREAARLAERNAWLRLALSSREDELVRTQASLEAIRAEKETLQKEVQELQDSLLRLEPCPHLSHNQAGGSGSGSSSSEADREPWETQDSFSLAHPLLRRLRSHSSTQILGSLPNQPLSPEMHIMEAQMEQLRGSIEKLKCFNRLLSAVLQGYKGRCEGLSMQLGQREAEATALHLALQYSEHCEEAYRVLLALREADSGAGDEAPMSDLQAAEKEAWRLLAQEEAAMDAGAQQNPQPSPEGSSVDKPTPQEVAFQLRSYVQRLQERRSLMKILSEPGPTLAPMPTVPRAEAMVQAILGTQAGPALPRLEKTQIQQDLVAAREALADLMLRLQLVRREKRGLELREAALRALGPAHVLLLEQLRWERAELQAGGANSSGGHSSGGGSSGDEEEWYQGLPAVPGGTSGIDGGQVGRAWDPEKLAQELAASLTRTLDLQEQLQSLRRELEQVAQKGRARRSQSAELNRDLCKAHSALVLAFRGAHRKQEEQRRKLEQQMALMEAQQAEEVAVLEATARALGKPRPPLPPPQLGDTFL | + | 1 | NS3 |  |  | 
XAB2 (protein, UniProt Q9HCS7 1-855, looked up) Pre-mRNA-splicing factor SYF1: MVVMARLSRPERPDLVFEEEDLPYEEEIMRNQFSVKCWLRYIEFKQGAPKPRLNQLYERALKLLPCSYKLWYRYLKARRAQVKHRCVTDPAYEDVNNCHERAFVFMHKMPRLWLDYCQFLMDQGRVTHTRRTFDRALRALPITQHSRIWPLYLRFLRSHPLPETAVRGYRRFLKLSPESAEEYIEYLKSSDRLDEAAQRLATVVNDERFVSKAGKSNYQLWHELCDLISQNPDKVQSLNVDAIIRGGLTRFTDQLGKLWCSLADYYIRSGHFEKARDVYEEAIRTVMTVRDFTQVFDSYAQFEESMIAAKMETASELGREEEDDVDLELRLARFEQLISRRPLLLNSVLLRQNPHHVHEWHKRVALHQGRPREIINTYTEAVQTVDPFKATGKPHTLWVAFAKFYEDNGQLDDARVILEKATKVNFKQVDDLASVWCQCGELELRHENYDEALRLLRKATALPARRAEYFDGSEPVQNRVYKSLKVWSMLADLEESLGTFQSTKAVYDRILDLRIATPQIVINYAMFLEEHKYFEESFKAYERGISLFKWPNVSDIWSTYLTKFIARYGGRKLERARDLFEQALDGCPPKYAKTLYLLYAQLEEEWGLARHAMAVYERATRAVEPAQQYDMFNIYIKRAAEIYGVTHTRGIYQKAIEVLSDEHAREMCLRFADMECKLGEIDRARAIYSFCSQICDPRTTGAFWQTWKDFEVRHGNEDTIKEMLRIRRSVQATYNTQVNFMASQMLKVSGSATGTVSDLAPGQSGMDDMKLLEQRAEQLAAEAERDQPLRAQSKILFVRSDASREELAELAQQVNPEEIQLGEDEDEDEMDLEPNEVRLEQQSVPAAVFGSLKED | + | 2 | NS3 |  |  | 
ZBTB1 (protein, UniProt Q9Y2K1 1-713, looked up) Zinc finger and BTB …: MAKPSHSSYVLQQLNNQREWGFLCDCCIAIDDIYFQAHKAVLAACSSYFRMFFMNHQHSTAQLNLSNMKISAECFDLILQFMYLGKIMTAPSSFEQFKVAMNYLQLYNVPDCLEDIQDADCSSSKCSSSASSKQNSKMIFGVRMYEDTVARNGNEANRWCAEPSSTVNTPHNREADEESLQLGNFPEPLFDVCKKSSVSKLSTPKERVSRRFGRSFTCDSCGFGFSCEKLLDEHVLTCTNRHLYQNTRSYHRIVDIRDGKDSNIKAEFGEKDSSKTFSAQTDKYRGDTSQAADDSASTTGSRKSSTVESEIASEEKSRAAERKRIIIKMEPEDIPTDELKDFNIIKVTDKDCNESTDNDELEDEPEEPFYRYYVEEDVSIKKSGRKTLKPRMSVSADERGGLENMRPPNNSSPVQEDAENASCELCGLTITEEDLSSHYLAKHIENICACGKCGQILVKGRQLQEHAQRCGEPQDLTMNGLGNTEEKMDLEENPDEQSEIRDMFVEMLDDFRDNHYQINSIQKKQLFKHSACPFRCPNCGQRFETENLVVEHMSSCLDQDMFKSAIMEENERDHRRKHFCNLCGKGFYQRCHLREHYTVHTKEKQFVCQTCGKQFLRERQLRLHNDMHKGMARYVCSICDQGNFRKHDHVRHMISHLSAGETICQVCFQIFPNNEQLEQHMDVHLYTCGICGAKFNLRKDMRSHYNAKHLKRT | + | 1 | NS3 |  |  | 
ZCCHC7 (protein, UniProt Q8N3Z6 1-543, looked up) Zinc finger CCHC …: MMFGGYETIEAYEDDLYRDESSSELSVDSEVEFQLYSQIHYAQDLDDVIREEEHEEKNSGNSESSSSKPNQKKLIVLSDSEVIQLSDGSEVITLSDEDSIYRCKGKNVRVQAQENAHGLSSSLQSNELVDKKCKSDIEKPKSEERSGVIREVMIIEVSSSEEEESTISEGDNVESWMLLGCEVDDKDDDILLNLVGCENSVTEGEDGINWSISDKDIEAQIANNRTPGRWTQRYYSANKNIICRNCDKRGHLSKNCPLPRKVRRCFLCSRRGHLLYSCPAPLCEYCPVPKMLDHSCLFRHSWDKQCDRCHMLGHYTDACTEIWRQYHLTTKPGPPKKPKTPSRPSALAYCYHCAQKGHYGHECPEREVYDPSPVSPFICYYDDKYEIQEREKRLKQKIKVLKKNGVIPEPSKLPYIKAANENPHHDIRKGRASWKSNRWPQENKETQKEMKNKNRNWEKHRKADRHREVDEDFPRGPKTYSSPGSFKTQKPSKPFHRSSHYHTSREDKSPKEGKRGKQKKKERCWEDDDNDNLFLIKQRKKKS | + | 2 | NS3 | 1 |  | 
TRIM23 (protein, UniProt P36406 1-574, looked up) E3 ubiquitin-protein ligase …: MATLVVNKLGAGVDSGRQGSRGTAVVKVLECGVCEDVFSLQGDKVPRLLLCGHTVCHDCLTRLPLHGRAIRCPFDRQVTDLGDSGVWGLKKNFALLELLERLQNGPIGQYGAAEESIGISGESIIRCDEDEAHLASVYCTVCATHLCSECSQVTHSTKTLAKHRRVPLADKPHEKTMCSQHQVHAIEFVCLEEGCQTSPLMCCVCKEYGKHQGHKHSVLEPEANQIRASILDMAHCIRTFTEEISDYSRKLVGIVQHIEGGEQIVEDGIGMAHTEHVPGTAENARSCIRAYFYDLHETLCRQEEMALSVVDAHVREKLIWLRQQQEDMTILLSEVSAACLHCEKTLQQDDCRVVLAKQEITRLLETLQKQQQQFTEVADHIQLDASIPVTFTKDNRVHIGPKMEIRVVTLGLDGAGKTTILFKLKQDEFMQPIPTIGFNVETVEYKNLKFTIWDVGGKHKLRPLWKHYYLNTQAVVFVVDSSHRDRISEAHSELAKLLTEKELRDALLLIFANKQDVAGALSVEEITELLSLHKLCCGRSWYIQGCDARSGMGLYEGLDWLSRQLVAAGVLDVA | + | 5 | NS3 |  |  | 
SLC31A2 (protein, UniProt O15432 1-143, looked up) Protein SLC31A2: MAMHFIFSDTAVLLFDFWSVHSPAGMALSVLVLLLLAVLYEGIKVGKAKLLNQVLVNLPTSISQQTIAETDGDSAGSDSFPVGRTHHRWYLCHFGQSLIHVIQVVIGYFIMLAVMSYNTWIFLGVVLGSAVGYYLAYPLLSTA |  |  | CORE |  | + | 1
